Test results reported in patent US20090304687A1, “METHODS OF USING CD40 BINDING AGENTS” (Seattle Genetics , Inc., priority 2005, published 2009).
Values joined by “and” are separate entries in the source; they are usually repeats but may differ in a detail not shown here. Equal values may be shown once. “Also recorded” adds a separate entry of the source. Read-outs that look alike come from different tables or passages of the source. One block for each molecule: values may come before it.

Assays:
[1] = system: Ramos cells; test: In vitro drug combinations with SGN-40, 3H-thymidine proliferation, Combination Index; type: cell-based; details: for Combination Index at ED50 / Combination Index at ED75 / Combination Index at ED90: drug with cross-linked SGN-40 (30.0-0.0586 ng/ml), Ramos cells 2% FBS, 72 hours
Procedure: Cells were treated for 72 hours, then labeled with ^3H-thymidine for 4 hours to measure proliferation rates. Dose response curves of drugs alone and in combination with the humanized CD40 antibody were reduced in Excel, and Combination Indices (CI) determined using the Calcusyn analysis package (Biosoft). […] CI values equal to 1.0 indicate an additive integration. For these studies, n=3 unless otherwise indicated.

[2] = target: CD40 immobilized on microassay plates (UniProt P25942 21-193, limits assumed); test: serially diluted antibody on CD40 immobilized on microassay plates
CD40 immobilized on microassay plates, sequence (P25942 21-193 limits assumed): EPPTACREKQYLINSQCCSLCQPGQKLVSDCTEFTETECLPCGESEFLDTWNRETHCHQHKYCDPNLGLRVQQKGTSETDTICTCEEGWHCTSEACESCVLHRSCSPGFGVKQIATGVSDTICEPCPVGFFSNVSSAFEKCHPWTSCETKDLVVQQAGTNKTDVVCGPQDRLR
Procedure: (§1) Antibodies constructed using these variant light and heavy chain variable domains were analyzed for binding activity. Each antibody was diluted to equivalent concentrations, and then serially diluted. The diluted antibodies were assayed for binding to CD40 immobilized on microassay plates.

[3] = target: CD40 (Homo sapiens, UniProt P25942); test: Binding of variant antibodies to CD40 immobilized on microassay plates; set-up: Binding Data 1 / Binding Data 2 / Binding Data 3: unit not given here; details: for Binding Data 1 / Binding Data 2: affinity binding data, serially diluted antibody on immobilized CD40; for binding activity compared with the parent murine antibody: in words
CD40, sequence (P25942 21-277): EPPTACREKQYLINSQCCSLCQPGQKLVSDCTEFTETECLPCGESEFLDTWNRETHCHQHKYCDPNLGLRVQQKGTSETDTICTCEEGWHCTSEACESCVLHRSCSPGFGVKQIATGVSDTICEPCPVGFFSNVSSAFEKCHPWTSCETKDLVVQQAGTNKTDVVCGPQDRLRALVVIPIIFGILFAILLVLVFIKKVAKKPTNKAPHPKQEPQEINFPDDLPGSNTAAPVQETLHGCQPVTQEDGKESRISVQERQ
Procedure: as §1, with “plates. Affinity binding data for the variant antibodies are shown below in Table 3.” for “plates.”

[4] = drug with cross-linked SGN-40, Ramos cells

Molecule: Nc1ccn([C@@H]2O[C@H](CO)[C@@H](O)[C@@H]2O)c(=O)n1 [Ara-C]
- Combination Index at ED50 [1]: 0.95
- Combination Index at ED75 [1]: 0.90
- Combination Index at ED90 [1]: 0.90
- Effect (of combination with SGN-40) [1, 4]: Additive

Molecule: N.N.[Cl][Pt][Cl] [Cisplatin]
- Combination Index at ED50 [1]: 1.04
- Combination Index at ED75 [1]: 0.89
- Combination Index at ED90 [1]: 0.78
- Effect (of combination with SGN-40) [1, 4]: Additive → Syn.
- Effect (of combination with SGN-40) ([1]; drug with cross-linked SGN-40, Ramos cells, listed as cisplatin): additive

Molecule: COc1cc([C@@H]2c3cc4c(cc3[C@@H](O[C@@H]3O[C@@H]5CO[C@@H](C)O[C@H]5[C@H](O)[C@H]3O)[C@H]3COC(=O)[C@H]23)OCO4)cc(OC)c1O [Etoposide]
- Effect (of combination with SGN-40) [1, 4]: Antagonistic. → Add.

Molecule: N[C@@H](Cc1ccc(N(CCCl)CCCl)cc1)C(=O)O [Melphalan]
- Effect (of combination with SGN-40) [1, 4]: Additive
- Effect (of combination with SGN-40) ([1]; drug with cross-linked SGN-40, Ramos cells, listed as melphalan): additive

Molecule: O=C1c2c(O)ccc(O)c2C(=O)c2c(NCCNCCO)ccc(NCCNCCO)c21 [Mitoxantrone]
- Effect (of combination with SGN-40) [1, 4]: Syn. → Add.
- Effect (of combination with SGN-40) ([1]; drug with cross-linked SGN-40, Ramos cells, listed as mitoxantrone): additive

Molecule: Bleomycin
- Effect (of combination with SGN-40) [1]: Synergistic

Molecule: TNFα
- Combination Index at ED50 [1]: 0.70
- Combination Index at ED75 [1]: 0.61
- Combination Index at ED90 [1]: 0.60
- Effect (of combination with SGN-40) [1, 4]: Synergistic

B1: SGN-14 (parent murine antibody, donor) (antibody, V domains shown)
VH: EVQLQQSGPDLVKPGASVKISCKASGYSFTGYYIHWVKQSHGKSLEWIGRVIPNNGGTSYNQKFKGKAILTVDKSSSTAYMELRSLTSEDSAVYYCAREGIYWWGHGTTLTVS
VL: DVVVTQTPLSLPVSLGAQASISCRSSQSLVHSNGNTFLHWYLQKPGQSPKLLIYTVSNRFSGVPDRFSGSGSGTDFTLKISRVEAEDLGVYFCSQTTHVPWTFGGGTKLEIQR
notes: Murine monoclonal antibody; also called S2C6; murine CD40 donor antibody
- Binding Data 1 [2]: 1
- Binding Data 2 [2]: 1.33

B2: hu sgn-1 (antibody, V domains shown)
VH: EVQLVESGGGLVQPGGSLRLSCAASGYSFTGYYIHWVRQAPGKGLEWVARVIPNNGGTSYNQKFKGRFTISVDNSKNTLYLQMNSLRAEDTAVYYCAREGIYWWGQGTLVTVS
VL: DIQMTQSPSSLSASVGDRVTITCRSSQSLVHSNGNTFLHWYQQKPGKAPKLLIYTVSNRFSGVPSRFSGSGSGTDFTLTISSLQPEDFATYYCSQTTHVPWTFGQGTKVEIKR
- Binding Data 1 [2]: 23.6
- Binding Data 2 [2]: 19.3

B3: hu sgn-14: humanized CD40 antibody variant, heavy SEQ ID NO: 7 (I70L R72V L79A), light SEQ ID NO: 14 (antibody, V domains shown)
VH: EVQLVESGGGLVQPGGSLRLSCAASGYSFTGYYIHWVRQAPGKGLEWVARVIPNNGGTSYNQKFKGRFTLSVDNSKNTAYLQMNSLRAEDTAVYYCAREGIYWWGQGTLVTVS
VL: DIQMTQSPSSLSASVGDRVTITCRSSQSLVHSNGNTFLHWYQQKPGKAPKLLIYTVSNRFSGVPSRFSGSGSGTDFTLTISSLQPEDFATYYCSQTTHVPWTFGQGTKVEIKR
- Binding Data 1 [3]: 1/11 and 0.86 and 0.77
- Binding Data 2 [3]: 0.69 and 0.77

B4: hu sgn-19: humanized CD40 antibody variant, heavy SEQ ID NO: 7, light SEQ ID NO: 16 (Y92F) (antibody, V domains shown)
VH: EVQLVESGGGLVQPGGSLRLSCAASGYSFTGYYIHWVRQAPGKGLEWVARVIPNNGGTSYNQKFKGRFTLSVDNSKNTAYLQMNSLRAEDTAVYYCAREGIYWWGQGTLVTVS
VL: DIQMTQSPSSLSASVGDRVTITCRSSQSLVHSNGNTFLHWYQQKPGKAPKLLIYTVSNRFSGVPSRFSGSGSGTDFTLTISSLQPEDFATYFCSQTTHVPWTFGQGTKVEIKR
- binding activity compared with the parent murine antibody [3]: approaching that of the parent murine antibody

B6: hu sgn-4 (antibody, V domains shown)
VH: EVQLVESGGGLVQPGGSLRLSCAASGYSFTGYYIHWVRQAPGKGLEWVARVIPNNGGTSYNQKFKGRATLSVDNSKNTAYLQMNSLRAEDTAVYYCAREGIYWWGQGTLVTVS
VL: DIQMTQSPSSLSASVGDRVTITCRSSQSLVHSNGNTFLHWYQQKPGKAPKLLIYTVSNRFSGVPSRFSGSGSGTDFTLTISSLQPEDFATYYCSQTTHVPWTFGQGTKVEIKR
- Binding Data 2 [2]: 2.46

B10: hu sgn-2 (antibody, V domains shown)
VH: EVQLVESGGGLVQPGGSLRLSCAASGYSFTGYYIHWVRQAPGKGLEWVARVIPNNGGTSYNQKFKGRFTISRDKSKNTLYLQMNSLRAEDTAVYYCAREGIYWWGQGTLVTVS
VL: DIQMTQSPSSLSASVGDRVTITCRSSQSLVHSNGNTFLHWYQQKPGKAPKLLIYTVSNRFSGVPSRFSGSGSGTDFTLTISSLQPEDFATYYCSQTTHVPWTFGQGTKVEIKR
- Binding Data 1 [2]: 471
- Binding Data 2 [2]: 371

Now from value to molecule, other results behind:

- Binding Data 2 [3]: 1.82 and 1.83
B5: hu sgn-16: humanized CD40 antibody variant, heavy SEQ ID NO: 9 (F68A I69L R72V), light SEQ ID NO: 14 (antibody, V domains shown)
VH: EVQLVESGGGLVQPGGSLRLSCAASGYSFTGYYIHWVRQAPGKGLEWVARVIPNNGGTSYNQKFKGRATLSVDNSKNTLYLQMNSLRAEDTAVYYCAREGIYWWGQGTLVTVS
VL: DIQMTQSPSSLSASVGDRVTITCRSSQSLVHSNGNTFLHWYQQKPGKAPKLLIYTVSNRFSGVPSRFSGSGSGTDFTLTISSLQPEDFATYYCSQTTHVPWTFGQGTKVEIKR

- Binding Data 2 [2]: 2.71
B7: hu sgn-15 (antibody, V domains shown)
VH: EVQLVESGGGLVQPGGSLRLSCAASGYSFTGYYIHWVRQAPGKGLEWVARVIPNNGGTSYNQKFKGRATISVDNSKNTAYLQMNSLRAEDTAVYYCAREGIYWWGQGTLVTVS
VL: DIQMTQSPSSLSASVGDRVTITCRSSQSLVHSNGNTFLHWYQQKPGKAPKLLIYTVSNRFSGVPSRFSGSGSGTDFTLTISSLQPEDFATYYCSQTTHVPWTFGQGTKVEIKR

- Binding Data 2 [2]: 0.9
B8: hu sgn-23 (antibody, V domains shown)
VH: EVQLVESGGGLVQPGGSLRLSCAASGYSFTGYYIHWVRQAPGKGLEWVARVIPNQGGTSYNQKFKGRFTLSVDNSKNTAYLQMNSLRAEDTAVYYCAREGIYWWGQGTLVTVS
VL: DIQMTQSPSSLSASVGDRVTITCRSSQSLVHSNGNTFLHWYQQKPGKAPKLLIYTVSNRFSGVPSRFSGSGSGTDFTLTISSLQPEDFATYYCSQTTHVPWTFGQGTKVEIKR
- binding activity compared with the parent murine antibody [3]: approaching that of the parent murine antibody

- Binding Data 1 [3]: 1.04 and 1.03 and 0.94 and 0.83
- Binding Data 2 [2]: 1.4
B9: hu sgn-27 (antibody, V domains shown)
VH: EVQLVESGGGLVQPGGSLRLSCAASGYSFTGYYIHWVRQAPGKGLEWVARVIPNQGGTSYNQKFKGRFTLSVDNSKNTAYLQMNSLRAEDTAVYYCAREGIYWWGQGTLVTVS
VL: DIQMTQSPSSLSASVGDRVTITCRSSQSLVHSNGNTFLHWYQQKPGKAPKLLIYTVSNRFSGVPSRFSGSGSGTDFTLTISSLQPEDFATYFCSQTTHVPWTFGQGTKVEIKR
- binding activity compared with the parent murine antibody [3]: approaching that of the parent murine antibody; also recorded: more closely approaching that of the parent murine antibody

- Binding Data 2 [2]: 3.56
B11: hu sgn-17 (antibody, V domains shown)
VH: EVQLVESGGGLVQPGGSLRLSCAASGYSFTGYYIHWVRQAPGKGLEWVARVIPNNGGTSYNQKFKGRATLSVDNSKNTAYLQMNSLRAEDTAVYYCAREGIYWWGQGTLVTVS
VL: DVQVTQSPSSLSASVGDRVTITCRSSQSLVHSNGNTFLHWYQQKPGKAPKLLIYTVSNRFSGVPSRFSGSGSGTDFTLTISSLQPEDFATYYCSQTTHVPWTFGQGTKVEIKR

- Binding Data 1 [3]: 1.44 and 1.41 and 1.80 and 0.93
- Binding Data 2 [2]: 0.84
B12: hu sgn-22 (antibody, V domains shown)
VH: EVQLVESGGGLVQPGGSLRLSCAASGYSFTGYYIHWVRQAPGKGLEWVARVIPNAGGTSYNQKFKGRFTLSVDNSKNTAYLQMNSLRAEDTAVYYCAREGIYWWGQGTLVTVS
VL: DIQMTQSPSSLSASVGDRVTITCRSSQSLVHSNGNTFLHWYQQKPGKAPKLLIYTVSNRFSGVPSRFSGSGSGTDFTLTISSLQPEDFATYYCSQTTHVPWTFGQGTKVEIKR
- binding activity compared with the parent murine antibody [3]: approaching that of the parent murine antibody

- Binding Data 1 [3]: 1.02 and 1.06
- Binding Data 2 [2]: 0.92
B13: hu sgn-26 (antibody, V domains shown)
VH: EVQLVESGGGLVQPGGSLRLSCAASGYSFTGYYIHWVRQAPGKGLEWVARVIPNAGGTSYNQKFKGRFTLSVDNSKNTAYLQMNSLRAEDTAVYYCAREGIYWWGQGTLVTVS
VL: DIQMTQSPSSLSASVGDRVTITCRSSQSLVHSNGNTFLHWYQQKPGKAPKLLIYTVSNRFSGVPSRFSGSGSGTDFTLTISSLQPEDFATYFCSQTTHVPWTFGQGTKVEIKR
- binding activity compared with the parent murine antibody [3]: approaching that of the parent murine antibody; also recorded: more closely approaching that of the parent murine antibody; also recorded: best performance

- Binding Data 1 [3]: 0.96 and 0.67
- Binding Data 2 [2]: 1.03
B14: hu sgn-18 (antibody, V domains shown)
VH: EVQLVESGGGLVQPGGSLRLSCAASGYSFTGYYIHWVRQAPGKGLEWVARVIPNNGGTSYNQKFKGRATLSVDNSKNTAYLQMNSLRAEDTAVYYCAREGIYWWGQGTLVTVS
VL: DIQMTQSPSSLSASVGDRVTITCRSSQSLVHSNGNTFLHWYQQKPGKAPKLLIYTVSNRFSGVPSRFSGSGSGTDFTLTISSLQPEDFATYFCSQTTHVPWTFGQGTKVEIKR
- binding activity compared with the parent murine antibody [3]: approaching that of the parent murine antibody; also recorded: more closely approaching that of the parent murine antibody
